# Experimental data as given in IntAct's records for PubMed 29749471.
# B1: Bcl-2-like protein 12 (Homo sapiens), Q9HB09 (parent)
# chain: MAGSEELGLREDTLRVLAAFLRRGEAAGSPVPTPPRSPAQEEPTDFLSRLRRCLPCSLGRGAAPSESPRPCSLPIRPCYGLEPGPATPDFYALVAQRLEQLVQEQLKSPPSPELQGPPSTEKEAILRRLVALLEEEAEVINQKLASDPALRSKLVRLSSDSFARLVELFCSRDDSSRPSRACPGPPPPSPEPLARLALAMELSRRVAGLGGTLAGLSVEHVHSFTPWIQAHGGWEGILAVSPVDLNLPLD
# Variants of: B1
# Settings: with BCL2L1, Q07817-1
# Sequence of BCL2L1, Q07817-1 (Q07817 whole entry): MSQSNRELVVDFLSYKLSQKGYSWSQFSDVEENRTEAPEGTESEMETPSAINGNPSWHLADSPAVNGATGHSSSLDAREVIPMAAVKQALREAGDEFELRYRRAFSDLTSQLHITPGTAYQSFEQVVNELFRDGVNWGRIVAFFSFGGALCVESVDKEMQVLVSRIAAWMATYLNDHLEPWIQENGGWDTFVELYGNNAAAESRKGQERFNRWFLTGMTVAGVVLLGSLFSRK
row,effect of a mutation on the interaction,Variant
1,disrupting interaction strength,L129A

# Variants of: B1
# Settings: with bcl2_human BCL2, P10415
# Sequence of bcl2_human BCL2, P10415 (P10415 whole entry): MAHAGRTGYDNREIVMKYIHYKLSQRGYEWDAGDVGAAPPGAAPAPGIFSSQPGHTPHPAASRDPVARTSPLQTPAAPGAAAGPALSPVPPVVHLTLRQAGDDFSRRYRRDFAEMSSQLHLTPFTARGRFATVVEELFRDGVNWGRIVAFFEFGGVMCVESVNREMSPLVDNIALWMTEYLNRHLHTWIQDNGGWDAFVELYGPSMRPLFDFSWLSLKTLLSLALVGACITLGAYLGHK
row,effect of a mutation on the interaction,Variant
1,disrupting interaction strength,L129A

# Variants of: B1
# Settings: with bax_human BAX
row,Variant,effect of a mutation on the interaction
1,L129A,with no effect
2,L132A,with no effect
3,I125A,with no effect

# The remaining lines, values ahead:
row,effect of a mutation on the interaction,Variant
1,with no effect,L133A
2,with no effect,E134A
3,with no effect,E136A

# Variants of: B1
# Settings: with gsk3b_human GSK3B
row,effect of a mutation on the interaction,Variant
1,disrupting interaction strength,I125A
